Assay results published in patent US20210101970A1 (Pfizer, published 2021).

How the values were obtained:
cynomolgus monkey CXCR5 = molecular target: T1, cynomolgus monkey CXCR5 (cynomolgus monkey, UniProt P32302 1-372 (human entry)); test: flow cytometry on cynoCXCR5-300.19 cells, fucosylated chimeric antibody
T1 construct: also called cynoCXCR5; NHP CXCR5
T1 chain: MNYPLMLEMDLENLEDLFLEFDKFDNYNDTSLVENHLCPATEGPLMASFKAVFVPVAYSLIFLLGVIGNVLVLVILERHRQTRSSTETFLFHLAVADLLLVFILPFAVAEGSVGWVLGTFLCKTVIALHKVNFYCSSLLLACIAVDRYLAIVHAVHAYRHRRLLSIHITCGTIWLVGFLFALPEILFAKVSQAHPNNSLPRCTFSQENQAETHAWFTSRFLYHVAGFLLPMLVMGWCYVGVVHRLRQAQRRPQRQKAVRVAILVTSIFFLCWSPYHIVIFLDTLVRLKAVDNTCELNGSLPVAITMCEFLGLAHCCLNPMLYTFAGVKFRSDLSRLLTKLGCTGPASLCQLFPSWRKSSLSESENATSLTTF

CXCR4 = molecular target: T2, CXCR4 (human, UniProt P61073 1-352); test: flow cytometry (GMFI) on Jurkat cells, which express CXCR4; chimeric antibody, goat anti-human PE
T2 construct: whole, on cells
Experimental: To determine the specificity of the antibodies for CXCR5, the binding of the antibodies to cells expressing other […] was assessed. Briefly, FlowCellect chemokine receptor cell lines expressing CXCR1, CXCR2, or CXCR3 (EMD Millipore, Billerica, Mass.), and Jurkats (ATCC, Manassas, Va.), which express CXCR4, were stained with 5 μg/ml or 10 μg/ml of each anti-CXCR5 chimeric antibody. The cells were then incubated with goat anti-human conjugated with PE (Southern Biotech, Birmingham, Ala.) prior to analysis by flow cytometry using a FACSVerse Analyzer (BD Biosciences, Franklin Lakes, N.J.).

rabbit CXCR5 ortholog = molecular target: T3, rabbit CXCR5 ortholog (rabbit, UniProt G1TNG1 1-374); test: not described
T3 sequence: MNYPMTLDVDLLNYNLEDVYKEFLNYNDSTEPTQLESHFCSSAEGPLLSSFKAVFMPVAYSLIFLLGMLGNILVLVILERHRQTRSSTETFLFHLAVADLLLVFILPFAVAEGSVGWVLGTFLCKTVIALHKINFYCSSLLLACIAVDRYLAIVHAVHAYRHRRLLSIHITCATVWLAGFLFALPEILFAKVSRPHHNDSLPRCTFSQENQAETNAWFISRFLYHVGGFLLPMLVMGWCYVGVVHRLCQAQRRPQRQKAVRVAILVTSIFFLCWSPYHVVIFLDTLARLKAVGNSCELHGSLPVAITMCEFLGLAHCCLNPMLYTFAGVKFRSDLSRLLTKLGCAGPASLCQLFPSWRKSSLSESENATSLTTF

rat CXCR5 ortholog = molecular target: T4, rat CXCR5 ortholog (rat, UniProt P34997 1-374); test: not described
T4 sequence (looked up): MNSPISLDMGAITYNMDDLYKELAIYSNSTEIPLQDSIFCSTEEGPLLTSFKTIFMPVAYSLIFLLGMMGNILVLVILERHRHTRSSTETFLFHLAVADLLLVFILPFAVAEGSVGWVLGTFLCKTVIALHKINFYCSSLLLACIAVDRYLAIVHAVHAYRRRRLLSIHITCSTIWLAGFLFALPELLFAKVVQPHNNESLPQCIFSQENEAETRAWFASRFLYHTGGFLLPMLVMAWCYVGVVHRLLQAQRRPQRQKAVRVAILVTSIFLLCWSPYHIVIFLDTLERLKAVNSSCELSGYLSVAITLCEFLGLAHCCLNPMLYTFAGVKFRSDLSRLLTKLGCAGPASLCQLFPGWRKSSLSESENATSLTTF

XC281 = molecular target: T5, XC281 (human, UniProt P32302 2-372); test: flow cytometry on HEK-293T cells transiently expressing the FLAG-tagged mutein; ratio of gMFI of the antibody to gMFI of anti-FLAG PE
T5 construct: also called hCXCR5 D22A
T5 sequence: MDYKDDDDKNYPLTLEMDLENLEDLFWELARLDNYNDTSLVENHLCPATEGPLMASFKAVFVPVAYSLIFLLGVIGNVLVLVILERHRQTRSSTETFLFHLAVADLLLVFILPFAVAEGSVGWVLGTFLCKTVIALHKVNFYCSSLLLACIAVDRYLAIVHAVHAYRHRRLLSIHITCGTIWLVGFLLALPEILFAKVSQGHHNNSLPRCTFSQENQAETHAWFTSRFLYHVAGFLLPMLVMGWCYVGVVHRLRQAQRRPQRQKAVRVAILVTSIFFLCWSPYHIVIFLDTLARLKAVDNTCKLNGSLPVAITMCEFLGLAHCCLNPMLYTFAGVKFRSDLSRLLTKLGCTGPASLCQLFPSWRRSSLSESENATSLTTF
Experimental: The cells were analyzed by flow cytometry using an Accuri (BD Biosciences Franklin Lakes, N.J.). The geometric mean fluorescence intensity (gMFI) was determined and the ratio for the gMFI of each CXCR5 antibody and anti-flag was calculated.

human CXCR5 = molecular target: T6, human CXCR5 (human, UniProt P32302 1-372); test: flow cytometry on Raji cells
T6 construct: also called hCXCR5; C-X-C chemokine receptor type 5
T6 sequence: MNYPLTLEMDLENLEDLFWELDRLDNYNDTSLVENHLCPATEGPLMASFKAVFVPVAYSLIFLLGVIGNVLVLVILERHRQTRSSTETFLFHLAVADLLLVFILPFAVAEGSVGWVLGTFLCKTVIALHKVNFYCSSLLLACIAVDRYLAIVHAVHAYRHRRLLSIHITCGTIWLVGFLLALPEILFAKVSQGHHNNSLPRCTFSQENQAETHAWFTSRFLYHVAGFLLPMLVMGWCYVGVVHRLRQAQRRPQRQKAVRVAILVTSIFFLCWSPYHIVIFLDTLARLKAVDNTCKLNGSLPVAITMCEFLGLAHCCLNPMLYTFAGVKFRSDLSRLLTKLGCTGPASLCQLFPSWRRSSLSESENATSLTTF

T2 sequence (P61073 whole entry): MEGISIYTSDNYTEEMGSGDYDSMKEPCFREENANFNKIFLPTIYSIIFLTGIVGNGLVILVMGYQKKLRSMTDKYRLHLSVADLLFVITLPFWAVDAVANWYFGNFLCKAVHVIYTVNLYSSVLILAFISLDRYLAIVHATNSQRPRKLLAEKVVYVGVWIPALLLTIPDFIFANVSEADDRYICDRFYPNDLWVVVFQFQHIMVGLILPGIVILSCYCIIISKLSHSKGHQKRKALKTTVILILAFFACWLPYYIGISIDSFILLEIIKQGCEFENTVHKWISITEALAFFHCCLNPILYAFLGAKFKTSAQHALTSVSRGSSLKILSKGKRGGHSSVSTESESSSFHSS

B1: Chimeric 11G2 (antibody, human IgG1, kappa, V domains shown)
VH: EVKLVESGGGLVQPGGSLRLSCATSGFTFTDFYMSWVRQPPGRALEWLGFIRNKANGYTTEYSASVKGRFTISRDNSQSILYLQMNTLRAGDSATYYCVRVYGSTLHYWGQGTILTVSS
VL: DVVVTQSPDSLAVSLGQRATISCRASESVEYHGTSLMHWYQQKPGQPPKLLIYAASNVESGVPARFSGSGSGTDFSLNIHPVEEGDIAMYFCQQSRKVPWTFGGGTKLEIKR
notes: mouse V regions on human IgG1/kappa; also called 11G2 (chimeric)
B1 was tested, and the EC50 (cynomolgus monkey CXCR5) was 24.2 pM and the binding result (CXCR4) was “no binding (tested: 5 or 10 µg/ml (not on the sheet))”.

B2: Afucosyl humanized 11G2 154/155 (antibody, human IgG1, kappa, V domains shown)
VH: EVQLVESGGGLVQPGGSLRLSCAASGFTFTDFYMSWVRQAPGKGLEWVGFIRNKANGYTTEYSASVKGRFTISRDNAKNSLYLQMNSLRAEDTAVYYCARVYGSTLHYWGQGTLVTVSS
VL: DIQMTQSPSSLSASVGDRVTITCRASESVEYHGTSLMHWYQQKPGKAPKLLIYAASNVESGVPSRFSGSGSGTDFTLTISSLQPEDFATYYCQQSRKVPWTFGQGTKVEIKR
modifications: afucosylated Fc glycan (Asn297)
notes: also called afucosyl h11G2 XC154/XC155; afucosylated h11G2 VL XC154/VH XC155
B2: no binding (rabbit CXCR5 ortholog); no binding (rat CXCR5 ortholog); no binding (tested: 1 or 3 µg/ml (not on the sheet)) (XC281).

B3: 2C9 (reference antibody) (antibody, human IgG1, kappa, V domains shown)
VH: EVQLVESGGGLVKPGGSLRLSCAASGFTFSTNAMNWVRQAPGKGLERVARIRSKSNNYATYYADSVKDRFTISRDDSKNTLYLQMNSLKTEDTAVYYCVTMIPFAYWGQGTLVTVSS
VL: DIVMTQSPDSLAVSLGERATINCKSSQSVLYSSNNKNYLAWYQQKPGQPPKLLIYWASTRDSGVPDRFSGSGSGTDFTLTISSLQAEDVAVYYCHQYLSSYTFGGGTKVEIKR
notes: fucosylated
With B3 the EC50 (human CXCR5) was 99.9 pM.
